In patent US20220332844A1 (ORIONIS BIOSCIENCES, published 2022) one finds binding result and Kd data, which are given here for 22 molecules.

To fix the notation:
B1: 2PE14 (VHH)
VHH: QVQLQESGGGLVQPGGSLRLSCAASGSTFSINAVAWYRQAPGKRRELVAGISGGGVTNYPDSVKGRFTISRDNAKNTVYLQMSSLKPEDTAVYYCNLWPPRASPGGRVYWGQGTQVTVSS
B2: 2PE44 (VHH)
VHH: QVQLQESGGGLVQPGGSLRLSCAASGSTFSVNAVAWYRQAPGKRRELVAGISGGGVTNYPDSVKGRFTISRDNAKNTVYLQMSSLIPEDTAVYYCNLWPPRASPGGRVYWGQGTQVTVSS
B3: 2PE40 (VHH)
VHH: QVQLQESGGGLVQPGGSLRLSCAASESTFSINAVAWYRQAPGKRRELVAGISGGGVTNYPDSVKGRFTISRDNAKNIVYLQMSSLKPEDTAVYYCNLWPPRASPGGRVYWGQGTQVTVSS
B4: 3PE42 (VHH)
VHH: QVQLQESGGGLVQPGESLRLSCAVSGSTSSMNAMAWYRQAPGKRRELVAGISGGGATNYPDSVKGRFTISRDNAKNTVYLQMSSLKPEDTAVYYCNLWPPRASPGGGVYWGQGTQVTVSS
B5: 3PE93 (VHH)
VHH: QVQLQESGGGLVQPGESLRLSCAVSGSTSSMNAMAWYRQAPGKRRELVAGISGGGATNYPDSMKGRFTISRDNAKNTVYLQMSSLKPEDTAVYYCNLWPPRASPGGGVYWGQGTQVTVSS
B6: 2PE42 (VHH)
VHH: QVQLQESGGGLVQAGGSLRLSCAASGSTFSINAVAWYRQAPGKRRELVAGISGGGVTNYPDSVRGRFTISRDNAKNTVYLQMSSLKPEDTAVYYCNLWPPRASPDGRVYWGQGTQVTVSS
B7: 3PE57 (VHH)
VHH: QVQLQESGGGLVQPGGSLRLSCAASGSTFSVNAVAWYRQAPGKRRELVAGISGGGVTNYPDSVKGRFTISRDNAKNTVYLQMSSLKPEDTAVYYCNLWPPRASPDGRVYWGQGTQVTVSS
B8: 2PE17 (VHH)
VHH: QVQLQESGGGLVQSGGSLRLSCAASGSTFSINAVAWYRQAPGKRRELVAGISGGGVTNYPDSVKGRFTISRDNAKNTVYLQMSSLKPEDTAVYYCNLWPPRASPGGRVYWGQGTQVTVSS
B9: 2PE36 (VHH)
VHH: QVQLQESGGGLVQPGGSLRLSCAASGSTFSINAVAWYRQAPGKRRELVAGISGGGVTNYPDSVKGRFTISRDNAKNTVYLQMSSLKPEDTAVYYCNLWPPRASPDGRVYWGQGTQVTVSS
B10: 3PE12 (VHH)
VHH: QVQLQESGGGLVQPGGSLRLSCAASGSTFSGNAMAWYRQAPGKRRELVAGISGGGVTNYPDSVKGRFTISRDNAKNTVYLQMSSLKPEDTAVYYCNLWPPRVSPGGGVYWGQGTQVTVSS
B11: P-1935: 3PE42_M31Q (VHH)
VHH: QVQLQESGGGLVQPGESLRLSCAVSGSTSSQNAMAWYRQAPGKRRELVAGISGGGATNYPDSVKGRFTISRDNAKNTVYLQMSSLKPEDTAVYYCNLWPPRASPGGGVYWGQGTQVTVSS
notes: also called pET28 PelB-3PE42_M42Q
B12: P-1931: 3PE42_M31K (VHH)
VHH: QVQLQESGGGLVQPGESLRLSCAVSGSTSSKNAMAWYRQAPGKRRELVAGISGGGATNYPDSVKGRFTISRDNAKNTVYLQMSSLKPEDTAVYYCNLWPPRASPGGGVYWGQGTQVTVSS
notes: also called pET28 PelB-3PE42_M42K
B13: P-1941: 3PE42_M31Y (VHH)
VHH: QVQLQESGGGLVQPGESLRLSCAVSGSTSSYNAMAWYRQAPGKRRELVAGISGGGATNYPDSVKGRFTISRDNAKNTVYLQMSSLKPEDTAVYYCNLWPPRASPGGGVYWGQGTQVTVSS
notes: also called pET28 PelB-3PE42_M42Y
B14: P-1930: 3PE42_M31I (VHH)
VHH: QVQLQESGGGLVQPGESLRLSCAVSGSTSSINAMAWYRQAPGKRRELVAGISGGGATNYPDSVKGRFTISRDNAKNTVYLQMSSLKPEDTAVYYCNLWPPRASPGGGVYWGQGTQVTVSS
notes: also called pET28 PelB-3PE42_M42I
B15: P-1938: 3PE42_M31T (VHH)
VHH: QVQLQESGGGLVQPGESLRLSCAVSGSTSSTNAMAWYRQAPGKRRELVAGISGGGATNYPDSVKGRFTISRDNAKNTVYLQMSSLKPEDTAVYYCNLWPPRASPGGGVYWGQGTQVTVSS
notes: also called pET28 PelB-3PE42_M42T
B16: P-1932: 3PE42_M31L (VHH)
VHH: QVQLQESGGGLVQPGESLRLSCAVSGSTSSLNAMAWYRQAPGKRRELVAGISGGGATNYPDSVKGRFTISRDNAKNTVYLQMSSLKPEDTAVYYCNLWPPRASPGGGVYWGQGTQVTVSS
notes: also called pET28 PelB-3PE42_M42L
B17: P-1933: 3PE42_M31N (VHH)
VHH: QVQLQESGGGLVQPGESLRLSCAVSGSTSSNNAMAWYRQAPGKRRELVAGISGGGATNYPDSVKGRFTISRDNAKNTVYLQMSSLKPEDTAVYYCNLWPPRASPGGGVYWGQGTQVTVSS
notes: also called pET28 PelB-3PE42_M42N
B18: P-1937: 3PE42_M31S (VHH)
VHH: QVQLQESGGGLVQPGESLRLSCAVSGSTSSSNAMAWYRQAPGKRRELVAGISGGGATNYPDSVKGRFTISRDNAKNTVYLQMSSLKPEDTAVYYCNLWPPRASPGGGVYWGQGTQVTVSS
notes: also called pET28 PelB-3PE42_M42S
B19: P-1936: 3PE42_M31R (VHH)
VHH: QVQLQESGGGLVQPGESLRLSCAVSGSTSSRNAMAWYRQAPGKRRELVAGISGGGATNYPDSVKGRFTISRDNAKNTVYLQMSSLKPEDTAVYYCNLWPPRASPGGGVYWGQGTQVTVSS
notes: also called pET28 PelB-3PE42_M42R
B20: P-1940: 3PE42_M31W (VHH)
VHH: QVQLQESGGGLVQPGESLRLSCAVSGSTSSWNAMAWYRQAPGKRRELVAGISGGGATNYPDSVKGRFTISRDNAKNTVYLQMSSLKPEDTAVYYCNLWPPRASPGGGVYWGQGTQVTVSS
notes: also called pET28 PelB-3PE42_M42W
B21: P-1934: 3PE42_M31P (VHH)
VHH: QVQLQESGGGLVQPGESLRLSCAVSGSTSSPNAMAWYRQAPGKRRELVAGISGGGATNYPDSVKGRFTISRDNAKNTVYLQMSSLKPEDTAVYYCNLWPPRASPGGGVYWGQGTQVTVSS
notes: also called pET28 PelB-3PE42_M42P
B22: P-1939: 3PE42_M31V (VHH)
VHH: QVQLQESGGGLVQPGESLRLSCAVSGSTSSVNAMAWYRQAPGKRRELVAGISGGGATNYPDSVKGRFTISRDNAKNTVYLQMSSLKPEDTAVYYCNLWPPRASPGGGVYWGQGTQVTVSS
notes: also called pET28 PelB-3PE42_M42V

One test addresses T1, mouse FAP on transiently transfected HEK293T cells (pMET7 FLAG-mFAP) (mouse, UniProt P97321 1-761).
T1 construct: whole, on cells; not shown: FLAG tag of the plasmid pMET7 FLAG-mFAP
T1 sequence (looked up): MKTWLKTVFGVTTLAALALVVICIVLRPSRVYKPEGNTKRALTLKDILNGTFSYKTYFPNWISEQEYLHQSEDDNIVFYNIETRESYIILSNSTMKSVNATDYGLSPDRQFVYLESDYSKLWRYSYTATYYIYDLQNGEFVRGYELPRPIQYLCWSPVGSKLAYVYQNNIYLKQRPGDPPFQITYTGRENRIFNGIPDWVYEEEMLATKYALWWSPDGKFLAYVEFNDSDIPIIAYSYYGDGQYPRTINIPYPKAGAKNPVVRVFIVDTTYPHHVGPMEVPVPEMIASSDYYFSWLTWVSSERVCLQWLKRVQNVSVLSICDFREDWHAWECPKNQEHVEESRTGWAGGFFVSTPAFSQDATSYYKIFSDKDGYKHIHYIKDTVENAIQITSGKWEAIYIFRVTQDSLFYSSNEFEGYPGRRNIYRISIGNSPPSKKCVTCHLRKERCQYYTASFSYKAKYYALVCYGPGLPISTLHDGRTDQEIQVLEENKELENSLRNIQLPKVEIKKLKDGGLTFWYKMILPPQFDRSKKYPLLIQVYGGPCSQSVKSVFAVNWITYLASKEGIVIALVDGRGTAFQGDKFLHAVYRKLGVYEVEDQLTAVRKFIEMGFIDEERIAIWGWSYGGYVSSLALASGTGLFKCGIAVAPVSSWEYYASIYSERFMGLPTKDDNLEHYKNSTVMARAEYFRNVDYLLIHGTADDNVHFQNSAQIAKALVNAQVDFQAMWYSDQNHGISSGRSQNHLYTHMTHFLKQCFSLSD
Put plainly: FACS, serial dilution of purified VHH on transfected HEK293T cells. In general terms: A flow cytometer gives signals particle by particle.
Turning to B1, the binding result is reported as “binds”.

Take B2: the binding result is listed as “binds”.

With B3, the binding result is on record as “binds”.

B4: the binding result is given as “binds”.

Turning to B5, the binding result was “binds”.

For B6, the binding result is listed as “binds”.

For the molecule B7, the binding result is reported as “binds”.

As for B8, the binding result is reported as “binds”.

As for B9, the binding result is listed as “binds”.

For B10, the binding result is reported as “binds”.

The target in a further test is T2, recombinant FAP protein (BioLegend), biotinylated (Homo sapiens (Human), UniProt Q12884 26-760, Biotinylated (sites not given) for loading on streptavidin sensors. Any vendor tag is not stated in the passages shown.).
T2 construct: Loaded on streptavidin sensors for BLI; also called biotinylated FAP
T2 sequence: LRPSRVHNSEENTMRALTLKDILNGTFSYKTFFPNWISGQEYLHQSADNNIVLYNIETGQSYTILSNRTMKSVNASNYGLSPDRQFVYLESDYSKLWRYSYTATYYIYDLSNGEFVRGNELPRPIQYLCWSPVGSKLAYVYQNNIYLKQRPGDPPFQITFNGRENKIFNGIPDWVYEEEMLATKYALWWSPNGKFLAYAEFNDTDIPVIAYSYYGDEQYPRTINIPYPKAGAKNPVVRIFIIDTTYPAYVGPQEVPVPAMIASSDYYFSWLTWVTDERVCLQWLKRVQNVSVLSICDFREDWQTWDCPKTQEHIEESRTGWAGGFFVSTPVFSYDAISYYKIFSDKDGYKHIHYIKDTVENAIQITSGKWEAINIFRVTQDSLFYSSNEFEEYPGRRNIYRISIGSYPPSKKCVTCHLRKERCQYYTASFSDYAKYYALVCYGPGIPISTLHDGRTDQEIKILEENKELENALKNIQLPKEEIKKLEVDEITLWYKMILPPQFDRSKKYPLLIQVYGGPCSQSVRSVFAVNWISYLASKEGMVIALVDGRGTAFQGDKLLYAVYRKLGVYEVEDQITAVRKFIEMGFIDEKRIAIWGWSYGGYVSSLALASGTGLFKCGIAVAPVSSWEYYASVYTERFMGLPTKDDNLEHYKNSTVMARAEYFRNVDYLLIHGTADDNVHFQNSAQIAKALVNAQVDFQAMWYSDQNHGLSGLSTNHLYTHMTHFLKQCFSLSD
Put plainly: BLI (Octet RED96), biotinylated FAP on streptavidin sensors. (In general: BLI is a label-free optical method that tracks binding on a fibre tip over time.)
For B11, the Kd worked out at 214 pM.

On to B12, for which the Kd was determined as 851 pM.

For the molecule B13, the Kd is 1120 pM.

B14: the Kd worked out at 2870 pM.

As to B15, the Kd was determined as 1160 pM.

Turning to B16, the Kd was 872 pM.

In the case of B17, the Kd came out at 567 pM.

Consider B18, for which the Kd is 613 pM.

In the case of B19, the Kd came out at 27.6 pM.

Take B20: the Kd came out at 94.5 pM.

As to B21, the Kd came to 1340 pM.

As to B22, the Kd stood at 2450 pM.

By Kd is commonly meant the equilibrium constant for the complex coming apart.
